System: OTII T cells
Assay: Adoptive transfer, immunization, OVA peptide/CFA rechallenge at day 8, OTII cell count at day ten
Assay type: in vivo, mouse
Experimental: FIGS. 8A and 8B are a series of dot plots (FIG. 8A) and a graph (FIG. 8B) showing that the oligosaccharide-mediated targeting of steady state dendritic cells leads to T cell tolerance. […] 2×10^7 OTII splenocytes were adoptively transferred into B6.Ly5.2/Cr recipients and then immunized by subcutaneous injection with PBS, OVA (200 ng), (OVA)-3-1 (200 ng), (OVA)-3-1 (200 ng)+mBSA (50 μg) or OVA peptide (100 μg) in Incomplete Freund's Adjuvant. At 8 days after these initial immunizations, mice received an antigenic rechallenge of OVA peptide (100 μg) in Complete Freund's Adjuvant. On day ten mice were sacrificed and cells were isolated from the draining lymph node, total T cells were purified by negative selection and the number of OTII T cells were counted by FACS as described for FIG. 6. […] Purified T cells from each experimental group were seeded at 3×10^5 cells/well with purified […] dendritic cells (9×10^4/well) and were incubated for twenty-four hours±OVA peptide (100 μg mL^−1) with [^3H]thymidine (1 μCi) added for the last ten hours. Prior to [^3H]thymidine addition, an aliquot of supernatant was removed for IFN-γ determination by ELISA.
At three days post-immunization, antibody-based targeting of the DEC-205 receptor led to a 6.5-fold enhancement of T cell activation relative to non-targeted antigen^2. After seven days, however, the activated T cell population diminished in number by 88% and the remaining T cells were unresponsive to systemic challenge of antigen in the highly stimulatory adjuvant CFA. […] To more fully understand the immunological consequences of these enhancements, OVA peptide (100 μg) was administered in CFA at eight days post-antigen immunization and the T cells' ability to respond to DC-presented peptide in vitro was assayed two days later (FIGS. 8A and 8B)^2: A positive control for T cell tolerance, consisting of a high dose administration of OVA peptide (100 μg) in Incomplete Freund's Adjuvant was also included. This regimen has been shown in a number of different studies to led to a state of T cell unresponsiveness upon antigen rechallenge^24,25.

[1] = two days post-antigen rechallenge in CFA (day ten)

B1: (OVA)-3-1: ovalbumin modified via SMCC with nonasaccharide 3-1, average of three saccharides per OVA (conjugate)
chain: GSIGAASMEFCFDVFKELKVHHANENIFYCPIAIMSALAMVYLGAKDSTRTQINKVVRFDKLPGFGDSIEAQCGTSVNVHSSLRDILNQITKPNDVYSFSLASRLYAEERYPILPEYLQCVKELYRGGLEPINFQTAADQARELINSWVESQTNGIIRNVLQPSSVDSQTAMVLVNAIVFKGLWEKAFKDEDTQAMPFRVTEQESKPVQMMYQIGLFRVASMASEKMKILELPFASGTMSMLVLLPDEVSGLEQLESIINFEKLTEWTSSNVMEERKIKVYLPRMKMEEKYNLTSVLMAMGITDVFSSSANLSGISSAESLKISQAVHAAHAEINEAGREVVGSAEAGVDAASVSEEFRADHPFLFCIKHIATNAVLFFGRCVSP
Day ten after immunization
  number of OTII T cells compared with OVA immunized mice: much greater number
mouse, in vivo
  T cell deletion in vivo: not observed
[1]
  number of OTII cells relative to the saline control group: 6 fold
  number of OTII cells relative to unmodified (soluble) OVA: 7.8 fold

From patent US8273357B2, “Antigen-carbohydrate conjugates” (Massachusetts Institute of Technology, priority 2004, dated 2012)
